Consider 32 molecules from patent publication US20120237528A1 (Janssen / Centocor, published 2012).

Sequences and labels used below:
B1: M63 (antibody, V domains shown)
VH: EVQLVQSGAEVKKPGESLRISCKGSGYTFITYWIEWVRQMPGKGLEWMGDILPGSGSTNYSPSFQGHVTISADKSISTAYLQWSSLKASDTAMYYCARSGYYGNSGFAYWGQGTLVTVSS
VL: DIVMTQTPLSSPVTLGQPASISCKSSQSLLSSGNQKNYLTWLQQRPGQPPRLLIYWASTRESGVPDRFSGSGAGTDFTLKISRVEAEDVGVYYCQNDYTYPLTFGQGTKLEIK
notes: complete MAb; FR4 is its own entry; also called H22/L7
B2: M74 (antibody, V domains shown)
VH: EVQLVQSGAEVKKPGATVKISCKVSGYTFITYWIEWVQQAPGKGLEWMGDILPGSGSTNYAEKFQGRVTITADTSTDTAYMELSSLRSEDTAVYYCATSGYYGNSGFAYWGQGTLVTVSS
VL: B1 VL with T7S, S11L, L15P, Q17E, L42Y, Q43L, R45K, P49S, R51Q, A73S
notes: complete MAb; FR4 is its own entry; also called H24/L4
B3: M77 (antibody, V domains shown)
VH: B2 VH
VL: B1 VL
notes: complete MAb; FR4 is its own entry; also called H24/L7
B4: M14 (antibody, V domains shown)
VH: B1 VH with S61N, P62E, S63N, Q65K
VL: B1 VL
notes: complete MAb; FR4 is its own entry; also called H15/L7
B5: M73 (antibody, V domains shown)
VH: B2 VH
VL: B1 VL with S11L, L15P, Q17E, L42Y, Q43L, R45K, P49S, R51Q, A73S
notes: complete MAb; FR4 is its own entry; also called H24/L3
B6: M49 (antibody, V domains shown)
VH: QVQLVQSGAEVKKPGASVKVSCKASGYTFITYWIEWVRQAPGQGLEWMGDILPGSGSTNYNENFKGRVTMTTDTSTSTAYMELRSLRSDDTAVYYCARSGYYGNSGFAYWGQGTLVTVSS
VL: B1 VL
notes: complete MAb; FR4 is its own entry; also called H20/L7
B7: M21 (antibody, V domains shown)
VH: B6 VH with T72R, A79V, R84S, D89E
VL: B1 VL
notes: complete MAb; FR4 is its own entry; also called H16/L7
B8: M28 (antibody, V domains shown)
VH: B6 VH with G44R, M70I, T72R, T76A, R84S, D89E
VL: B1 VL
notes: complete MAb; FR4 is its own entry; also called H17/L7
B9: M70 (antibody, V domains shown)
VH: B6 VH with A16S, N61A, E62Q, N63K, K65Q, M70I, T72A, T74E, R84S, D89E
VL: B1 VL
notes: complete MAb; FR4 is its own entry; also called H23/L7
B10: M38 (antibody, V domains shown)
VH: B6 VH with A16S, M70I, T72A, T74E, R84S, D89E
VL: B1 VL with S11L, L15P, Q17E, L42Y, Q43L, R45K, P49S, R51Q, A73S
notes: complete MAb; FR4 is its own entry; also called H19/L3
B11: M75 (antibody, V domains shown)
VH: B2 VH
VL: B1 VL with S11L, P12S, L15P, L42Y, Q43L, R45K, R51Q, A73S
notes: complete MAb; FR4 is its own entry; also called H24/L5
B12: M17 (antibody, V domains shown)
VH: B6 VH with T72R, A79V, R84S, D89E
VL: B1 VL with S11L, L15P, Q17E, L42Y, Q43L, R45K, P49S, R51Q, A73S
notes: complete MAb; FR4 is its own entry; also called H16/L3
B13: M25 (antibody, V domains shown)
VH: B6 VH with G44R, M70I, T72R, T76A, R84S, D89E
VL: B1 VL with T7S, S11L, L15P, Q17E, L42Y, Q43L, R45K, P49S, R51Q, A73S
notes: complete MAb; FR4 is its own entry; also called H17/L4
B14: M66 (antibody, V domains shown)
VH: B6 VH with A16S, N61A, E62Q, N63K, K65Q, M70I, T72A, T74E, R84S, D89E
VL: B1 VL with S11L, L15P, Q17E, L42Y, Q43L, R45K, P49S, R51Q, A73S
notes: complete MAb; FR4 is its own entry; also called H23/L3
B15: M40 (antibody, V domains shown)
VH: B6 VH with A16S, M70I, T72A, T74E, R84S, D89E
VL: B1 VL with S11L, P12S, L15P, L42Y, Q43L, R45K, R51Q, A73S
notes: complete MAb; FR4 is its own entry; also called H19/L5
B16: M24 (antibody, V domains shown)
VH: B6 VH with G44R, M70I, T72R, T76A, R84S, D89E
VL: B1 VL with S11L, L15P, Q17E, L42Y, Q43L, R45K, P49S, R51Q, A73S
notes: complete MAb; FR4 is its own entry; also called H17/L3
B17: M39 (antibody, V domains shown)
VH: B6 VH with A16S, M70I, T72A, T74E, R84S, D89E
VL: B1 VL with T7S, S11L, L15P, Q17E, L42Y, Q43L, R45K, P49S, R51Q, A73S
notes: complete MAb; FR4 is its own entry; also called H19/L4
B18: M67 (antibody, V domains shown)
VH: B6 VH with A16S, N61A, E62Q, N63K, K65Q, M70I, T72A, T74E, R84S, D89E
VL: B1 VL with T7S, S11L, L15P, Q17E, L42Y, Q43L, R45K, P49S, R51Q, A73S
notes: complete MAb; FR4 is its own entry; also called H23/L4
B19: M47 (antibody, V domains shown)
VH: B6 VH
VL: B1 VL with S11L, P12S, L15P, L42Y, Q43L, R45K, R51Q, A73S
notes: complete MAb; FR4 is its own entry; also called H20/L5
B20: M18 (antibody, V domains shown)
VH: B6 VH with T72R, A79V, R84S, D89E
VL: B1 VL with T7S, S11L, L15P, Q17E, L42Y, Q43L, R45K, P49S, R51Q, A73S
notes: complete MAb; FR4 is its own entry; also called H16/L4
B21: M23 (antibody, V domains shown)
VH: B6 VH with G44R, M70I, T72R, T76A, R84S, D89E
VL: DIVMTQSPDSLAVSLGERATINCKSSQSLLSSGNQKNYLTWYQQKPGQPPKLLIYWASTRESGVPDRFSGSGSGTDFTLTISSLQAEDVAVYYCQNDYTYPLTFGQGTKLEIK
notes: complete MAb; FR4 is its own entry; also called H17/L2
B22: M72 (antibody, V domains shown)
VH: B2 VH
VL: B21 VL
notes: complete MAb; FR4 is its own entry; also called H24/L2
B23: M44 (antibody, V domains shown)
VH: B6 VH
VL: B21 VL
notes: complete MAb; FR4 is its own entry; also called H20/L2
B24: M65 (antibody, V domains shown)
VH: B6 VH with A16S, N61A, E62Q, N63K, K65Q, M70I, T72A, T74E, R84S, D89E
VL: B21 VL
notes: complete MAb; FR4 is its own entry; also called H23/L2
B25: murine antibody 10H10 (antibody, V domains shown)
VH: QVHLQQSGAELMKPGASVKISCKASGYTFITYWIEWVKQRPGHGLEWIGDILPGSGSTNYNENFKGKATFTADSSSNTAYMQLSSLTSEDSAVYYCARSGYYGNSGFAYWGQGTLVTVSA
VL: DIVMTQSPSSLTVTAGEKVTMSCKSSQSLLSSGNQKNYLTWYQQIPGQPPKLLIYWASTRESGVPDRFTGSGSGTDFTLTINSVQAEDLAVYYCQNDYTYPLTFGAGTKLELK
B26: M1648 (antibody, V domains shown)
VH: B1 VH with I30A, T31P, S55T, S57F, N59T
VL: DIVMTQTPLSLPVTPGEPASISCKSSQSLLPSWNQSNYLTWYLQKPGQSPQLLIYWASTRESGVPDRFSGSGSGTDFTLKISRVEAEDVGVYYCQNDFTYPLTFGQGTKLEIK
notes: complete MAb; FR4 is its own entry; also called H171/L327
B27: M1645 (antibody, V domains shown)
VH: B1 VH
VL: B26 VL with P31Y, S32T, W33S, S36K, F98D, T99Y, Y100W
notes: complete MAb; FR4 is its own entry; also called H22/L283
B28: M1647 (antibody, V domains shown)
VH: B1 VH with I30A, T31P, S55T, S57F, N59T
VL: B26 VL with P31Y, W33G, S36R, E61S, F98D, L102M
notes: complete MAb; FR4 is its own entry; also called H171/L320
B29: M1643 (antibody, V domains shown)
VH: B1 VH
VL: B26 VL with P31Y, S32V, W33Y, N34G, S36K, T99S, Y100W
notes: complete MAb; FR4 is its own entry; also called H22/L162
B30: M1644 (antibody, V domains shown)
VH: B1 VH
VL: B26 VL with P31F, S32R, W33P, N34T, S36K, F98D, T99S
notes: complete MAb; FR4 is its own entry; also called H22/L225
B31: M1642 (antibody, V domains shown)
VH: B1 VH
VL: B26 VL with P31T, W33Y, S36R, F98L
notes: complete MAb; FR4 is its own entry; also called H22/L369
B32: M1650 (antibody, V domains shown)
VH: B1 VH with I30A, T31P, S55T, S57F, N59T
VL: B26 VL with P31T, W33Y, S36R, F98L
notes: complete MAb; FR4 is its own entry; also called H171/L369

Positions count from the first letter of the chain named.

One assay deals with T1, recombinant extracellular domain (ECD) of human TF, amino acid 1-219 of the mature chain, C-terminal His6-tag (human, UniProt P13726 33-251).
T1 construct: expressed in a mammalian system; used for ELISA and Biacore; biotinylated by NHS-ester for the Fab ELISA; also called His6-TF-ECD1-219; HumanTF1-219
The experiment in a line: direct ELISA, 50 ng/ml. For orientation: ELISA stands for enzyme-linked immunosorbent assay.
On to B1, for which the binding result is recorded as “binds”.

For the molecule B2, the binding result is “binds”.

For the molecule B3, the binding result was “binds”.

Consider B4, for which the binding result is recorded as “binds”.

For the molecule B5, the binding result is given as “binds”.

Take B6: the binding result is “binds”.

With B7, the binding result is recorded as “binds”.

Take B8: the binding result is recorded as “binds”.

With B9, the binding result is reported as “binds”.

As for B10, the binding result is listed as “binds”.

For B11, the binding result is “binds”.

For B12, the binding result is “binds”.

Consider B13, for which the binding result was “binds”.

Take B14: the binding result was “binds”.

As to B15, the binding result is “binds”.

With B16, the binding result was “binds”.

In the case of B17, the binding result is reported as “binds”.

As for B18, the binding result is reported as “binds”.

On to B19, for which the binding result is “binds”.

Turning to B20, the binding result is on record as “binds”.

Consider B21, for which the binding result is reported as “binds”.

As for B22, the binding result is “binds”.

On to B23, for which the binding result is on record as “binds”.

With B24, the binding result is given as “binds”.

Another assay has as its target endogenous human tissue factor on MDA-MB-231 breast cancer cells (human, UniProt P13726 33-295). The experiment in a line: cell-based or functional assay.
For the molecule B25, the “% IL-8 Inhibition” value came out at 93.9%.

A further assay deals with Innovin, lyophilized recombinant human tissue factor combined with phospholipids (human, UniProt P13726 33-295, limits assumed). Kind of assay: cell-based or functional assay.
B26: the “T½ Max (seconds), coagulation of human plasma” value (“T½ Max (seconds), coagulation” below) was found to be 161 s.

With B27, the “T½ Max (seconds), coagulation” value turned out to be 154 s.

For the molecule B28, the “T½ Max (seconds), coagulation” value is 160 s.

On to B29, for which the “T½ Max (seconds), coagulation” value is 148 s.

With B30, the “T½ Max (seconds), coagulation” value stood at 150 s.

For the molecule B31, the “T½ Max (seconds), coagulation” value was determined as 166 s.

As to B32, the “T½ Max (seconds), coagulation” value amounted to 150 s.

As for B25, the “T½ Max (seconds), coagulation” value was determined as 191 s.

The target in the next assay is T1, recombinant extracellular domain (ECD) …. Kind of assay: Biacore. In general terms: SPR reads the build-up and loss of mass on a sensor chip optically.
Broadly, the Kd is the constant that tells how readily two partners part at equilibrium. Consider B26, for which the Kd stood at 0.73 nM.

As for B27, the Kd stood at 0.08 nM.

As for B28, the Kd came out at 0.1 nM.

Turning to B29, the Kd was determined as 0.18 nM.

In the case of B30, the Kd stood at 0.12 nM.

Regarding B31, the Kd stood at 0.95 nM.

Regarding B32, the Kd was 0.19 nM.
